The results in this text go back to US20240294622A1 (SUZHOU TRANSCENTA THERAPEUTICS, published 2024).

To fix the notation:
T1: Mouse Gremlin-His (R&D) (mouse, UniProt O70326 25-184)
T1 construct: Lys25-Asp184 with 10xHis, R&D 956-GR; also called mouse gremlin (R&D); mGREM1
T1 sequence: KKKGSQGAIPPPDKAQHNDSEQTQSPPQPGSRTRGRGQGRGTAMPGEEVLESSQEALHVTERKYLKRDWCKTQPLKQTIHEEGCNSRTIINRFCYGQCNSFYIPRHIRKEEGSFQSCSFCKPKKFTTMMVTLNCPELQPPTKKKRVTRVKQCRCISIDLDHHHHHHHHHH

T2: HGREM1-His (ACRO) (human, UniProt O60565 25-184)
T2 construct: Lys25-Asp184 of NP_037504 with C-terminal polyhistidine tag (ACRO GR1-H52H3); they are put here; also called hGREM1 (ACRO); human gremlin (ACRO)
T2 sequence: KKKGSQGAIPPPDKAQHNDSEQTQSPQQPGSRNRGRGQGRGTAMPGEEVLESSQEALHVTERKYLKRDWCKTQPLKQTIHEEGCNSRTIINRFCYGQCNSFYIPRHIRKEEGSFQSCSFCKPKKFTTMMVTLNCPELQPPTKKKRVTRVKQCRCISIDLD

B1: 56C11 (antibody, V domains shown)
VH: EVQLQQSGPELVKPGASVKISCKASGYTFTDFYMNWVKQSHGKSLEWIGDINPNNGGTSYNQKFKGKATLTVDKSSSTAYMELRSLTSEDSAVYYCARDPIYYDYDEVAYWGQGTLVTVSA
VL: DVVMTQTPLSLPVSLGDQASISCRSSQSLVHSNGNTYLHWYLQKPGQSPKLLIYKVSNRFSGVPDRFSGSGSGTDFTLKISRVEAEDLGVYFCSQSTHVPLTFGAGTKLELK
notes: mouse hybridoma antibody; also called hybridoma 56C11
B2: Hu14E3_HbLa (antibody, IgG1, V domains shown)
VH: QIQLVQSGSELKKPGASVKVSCKASGYTFTTYGMAWMRQAPGQGLEWMGWINTLSGEPTYADDFKGRFAFSLDTSVSTAYLQISSLKAEDTAVYYCAREPMDYWGQGTMVTVSS
VL: DVVMTQSPLSLPVTLGQPASISCKSSQSLLDSDGKTYLSWLQQRPGQSPRRLIYLVSKLDSGVPDRFSGSGSGTDFTLKISRVEAEDVGVYYCWQGAHFPLTFGQGTKLEIK
notes: humanized
B3: Hu22F1_HcLa (antibody, V domains shown)
VH: QAQLVQSGAEVKKPGASVKVSCKASGYSFTDYYMNWVRQAPGQGLEWMGDINPKDGDSGYSHKFKGRVTLTVDKSTSTVYMELRSLRSEDTAVYYCASGFTTVVARGDYWGQGTTVTVSS
VL: DVVMTQSPLSLPVTLGQPASISCKSSQSLLDSDGKTYLNWLQQRPGQSPRRLIYLVSKLDSGVPDRFSGSGSGTDFTLKISRVEAEDVGVYYCWQGTHFPYTFGGGTKVEIK
B4: Hu22F1_HdLa (antibody, V domains shown)
VH: QAQLVQSGAEVKKPGASVKVSCKASGYSFTDYYMNWLRQAPGQGLEWIGDINPKDGDSGYSHKFKGRATLTVDKSTSTVYMELRSLRSEDTAVYYCASGFTTVVARGDYWGQGTTVTVSS
VL: DVVMTQSPLSLPVTLGQPASISCKSSQSLLDSDGKTYLNWLQQRPGQSPRRLIYLVSKLDSGVPDRFSGSGSGTDFTLKISRVEAEDVGVYYCWQGTHFPYTFGGGTKVEIK
B5: Hu14E3_HbLb (antibody, IgG1, V domains shown)
VH: QIQLVQSGSELKKPGASVKVSCKASGYTFTTYGMAWMRQAPGQGLEWMGWINTLSGEPTYADDFKGRFAFSLDTSVSTAYLQISSLKAEDTAVYYCAREPMDYWGQGTMVTVSS
VL: DVVMTQSPLSLPVTLGQPASISCKSSQSLLDSDGKTYLSWLQQRPGQSPRRLISLVSKLDSGVPDRFSGSGSGTDFTLKISRVEAEDVGVYYCWQGAHFPLTFGQGTKLEIK
notes: humanized
B6: Hu22F1_HaLb (antibody, V domains shown)
VH: QVQLVQSGAEVKKPGASVKVSCKASGYSFTDYYMNWVRQAPGQGLEWMGDINPKDGDSGYSHKFKGRVTMTRDTSTSTVYMELSSLRSEDTAVYYCASGFTTVVARGDYWGQGTTVTVSS
VL: DVVMTQSPLSLPVTLGQPASISCKSSQSLLDSDGKTYLNWLQQRPGQSPRRLIYLVSKLDSGFPDRFSGSGSGTDFTLKISRVEAEDVGVYYCWQGTHFPYTFGGGTKVEIK
B7: Hu14E3_HcLa (antibody, IgG1, V domains shown)
VH: QIQLVQSGSELKKPGASVKVSCKASGSTFTTYGMAWMKQAPGQGLTWMGWINTLSGEPTYADDFKGRFAFSLDTSVSTAYLQISSLKAEDTAVYYCAREPMDYWGQGTMVTVSS
VL: DVVMTQSPLSLPVTLGQPASISCKSSQSLLDSDGKTYLSWLQQRPGQSPRRLIYLVSKLDSGVPDRFSGSGSGTDFTLKISRVEAEDVGVYYCWQGAHFPLTFGQGTKLEIK
notes: humanized
B8: Hu22F1_HcLb (antibody, V domains shown)
VH: QAQLVQSGAEVKKPGASVKVSCKASGYSFTDYYMNWVRQAPGQGLEWMGDINPKDGDSGYSHKFKGRVTLTVDKSTSTVYMELRSLRSEDTAVYYCASGFTTVVARGDYWGQGTTVTVSS
VL: DVVMTQSPLSLPVTLGQPASISCKSSQSLLDSDGKTYLNWLQQRPGQSPRRLIYLVSKLDSGFPDRFSGSGSGTDFTLKISRVEAEDVGVYYCWQGTHFPYTFGGGTKVEIK
B9: Hu22F1_HdLb (antibody, V domains shown)
VH: QAQLVQSGAEVKKPGASVKVSCKASGYSFTDYYMNWLRQAPGQGLEWIGDINPKDGDSGYSHKFKGRATLTVDKSTSTVYMELRSLRSEDTAVYYCASGFTTVVARGDYWGQGTTVTVSS
VL: DVVMTQSPLSLPVTLGQPASISCKSSQSLLDSDGKTYLNWLQQRPGQSPRRLIYLVSKLDSGFPDRFSGSGSGTDFTLKISRVEAEDVGVYYCWQGTHFPYTFGGGTKVEIK
B10: Hu22F1_HaLa (antibody, V domains shown)
VH: QVQLVQSGAEVKKPGASVKVSCKASGYSFTDYYMNWVRQAPGQGLEWMGDINPKDGDSGYSHKFKGRVTMTRDTSTSTVYMELSSLRSEDTAVYYCASGFTTVVARGDYWGQGTTVTVSS
VL: DVVMTQSPLSLPVTLGQPASISCKSSQSLLDSDGKTYLNWLQQRPGQSPRRLIYLVSKLDSGVPDRFSGSGSGTDFTLKISRVEAEDVGVYYCWQGTHFPYTFGGGTKVEIK
notes: humanized 22F1 variant
B11: Hu22F1_HbLb (antibody, V domains shown)
VH: QVQLVQSGAEVKKPGASVKVSCKASGYSFTDYYMNWVRQAPGQGLEWMGDINPKDGDSGYSHKFKGRVTMTVDKSTSTVYMELSSLRSEDTAVYYCASGFTTVVARGDYWGQGTTVTVSS
VL: DVVMTQSPLSLPVTLGQPASISCKSSQSLLDSDGKTYLNWLQQRPGQSPRRLIYLVSKLDSGFPDRFSGSGSGTDFTLKISRVEAEDVGVYYCWQGTHFPYTFGGGTKVEIK
B12: Hu14E3_HcLb (antibody, IgG1, V domains shown)
VH: QIQLVQSGSELKKPGASVKVSCKASGSTFTTYGMAWMKQAPGQGLTWMGWINTLSGEPTYADDFKGRFAFSLDTSVSTAYLQISSLKAEDTAVYYCAREPMDYWGQGTMVTVSS
VL: DVVMTQSPLSLPVTLGQPASISCKSSQSLLDSDGKTYLSWLQQRPGQSPRRLISLVSKLDSGVPDRFSGSGSGTDFTLKISRVEAEDVGVYYCWQGAHFPLTFGQGTKLEIK
notes: humanized
B13: Hu14E3_HaLb (antibody, IgG1, V domains shown)
VH: QVQLVQSGSELKKPGASVKVSCKASGYTFTTYGMAWMRQAPGQGLEWMGWINTLSGEPTYADDFKGRFVFSLDTSVSTAYLQISSLKAEDTAVYYCAREPMDYWGQGTMVTVSS
VL: DVVMTQSPLSLPVTLGQPASISCKSSQSLLDSDGKTYLSWLQQRPGQSPRRLISLVSKLDSGVPDRFSGSGSGTDFTLKISRVEAEDVGVYYCWQGAHFPLTFGQGTKLEIK
notes: humanized
B14: Hu22F1_HbLa (antibody, V domains shown)
VH: QVQLVQSGAEVKKPGASVKVSCKASGYSFTDYYMNWVRQAPGQGLEWMGDINPKDGDSGYSHKFKGRVTMTVDKSTSTVYMELSSLRSEDTAVYYCASGFTTVVARGDYWGQGTTVTVSS
VL: DVVMTQSPLSLPVTLGQPASISCKSSQSLLDSDGKTYLNWLQQRPGQSPRRLIYLVSKLDSGVPDRFSGSGSGTDFTLKISRVEAEDVGVYYCWQGTHFPYTFGGGTKVEIK

In the first assay the target is T1, Mouse Gremlin-His (R&D). The experiment in a line: ELISA, coated mouse gremlin (R&D). The procedure: (§1) Clear polystyrene plates (BEAVER) were coated with 100 μl/well of a […] hGREM1 (ACRO) and mouse gremlin (R&D) in high pH coating buffer overnight at 4° C. Then the plates were washed once on an automatic plate washer using PBS+0.1% Tween 20 (Sigma). 100 μl of block solution consisting of PBS+1% BSA+1% normal goat serum+0.5% Tween 20 (Sigma) was added to each well and incubated at room temperature for 2 hours. Then 100 μl of antibodies in antibody dilution buffer containing PBS+1% BSA+1% normal goat serum+0.01% Tween 20 starting from 2 μg/ml and then serial dilutions were added to each well of the plate and incubated for 1 hours at room temperature. Afterward the plates were washed three times with 200 μl of PBS+0.1% Tween20 followed by adding 100 μl/well 1:10000 Goat anti mouse IgG-HRP (abcam), and incubate for 1 hour at room temperature. They were then washed 3× with PBS+0.1% Tween20. Finally, 100 µl/well of TMB (Pierce) was added to each well and after several minutes add 50 μl of stop solution to each well. The plates were read on a Multiscan FC microplate reader (Thermo Scientific) at […].
For orientation: ELISA stands for enzyme-linked immunosorbent assay.
As a reminder, the EC50 is the concentration that produces a half-maximal response. B1: the EC50 amounted to 0.0172 µg/mL.

For another assay, the target named is T2, HGREM1-His (ACRO). The assay is described as follows: ELISA, coated hGREM1 (ACRO). The procedure: as §1
Turning to B1, the EC50 was 0.0134 µg/mL.

For another assay, the target named is T2, HGREM1-His (ACRO). The assay is described as follows: ELISA, binding to hGremlin-his.
Take B2: the midpoint of the response, the EC50, lay at 0.006 µg/mL.
Molecule B3 returned an EC50 of 0.312 µg/mL.
The same measure, in the same setting: the same measure for B4: 0.0167 µg/mL; for B5: 0.0062 µg/mL.
B6 registered an EC50 of 0.117 µg/mL.
On the same count and under the same terms, then B7, with 0.0066 µg/mL.
Same read-out and setting: then B8, with 0.0435 µg/mL.
Still for that read-out and setting: the same measure for B9: 0.0103 µg/mL; for B10: 1.17 µg/mL; for B11: 0.094 µg/mL.
In turn, B12 yielded an EC50 of 0.0061 µg/mL.
B13: the EC50 turned out to be 0.0056 µg/mL.
As for B14, the EC50 came out at 1.04 µg/mL.
